The values below come from patent US20240400708A1.

Assay [1] has as its target feline FcRn complex (FcRn-α subunit and β-microglobulin), biotin labeled (feline). As to the kind of experiment: SPR, pH 6.
Assay [2] has the same target. As to the kind of experiment: SPR, pH 7.4.

B1: feline IgG1a S252Y/Q311W/L314K (antibody, part only; not given: Variable domains, not shown: another chain or arm of the molecule)
constant: ASTTAPSVFPLAPSCGTTSGATVALACLVLGYFPEPVTVSWNSGALTSGVHTFPAVLQASGLYSLSSMVTVPSSRWLSDTFTCNVAHPPSNTKVDKTVRKTDHPPGPKPCDCPKCPPPEMLGGPSIFIFPPKPKDTLYISRTPEVTCLVVDLGPDDSDVQITWFVDNTQVYTAKTSPREEQFNSTYRVVSVLPILHWDWKKGKEFKCKVNSKSLPSPIERTISKAKGQPHEPQVYVLPPAQEELSRNKVSVTCLIKSFHPPDIAVEWEITGQPEPENNYRTTPPQLDSDGTYFVYSKLSVDRSHWQRGNTYTCSVSHEALHSHHTQKSLTQSPGK
The Kd is the concentration at which binding is half-saturated. Read a low Kd as a tighter complex. As for B1, the Kd in assay [1] stood at 10.8 nM; in assay [2], 179 nM.

B2: feline IgG1a S252Y/S434W (antibody, part only; not given: Variable domains, not shown: another chain or arm of the molecule)
constant: ASTTAPSVFPLAPSCGTTSGATVALACLVLGYFPEPVTVSWNSGALTSGVHTFPAVLQASGLYSLSSMVTVPSSRWLSDTFTCNVAHPPSNTKVDKTVRKTDHPPGPKPCDCPKCPPPEMLGGPSIFIFPPKPKDTLYISRTPEVTCLVVDLGPDDSDVQITWFVDNTQVYTAKTSPREEQFNSTYRVVSVLPILHQDWLKGKEFKCKVNSKSLPSPIERTISKAKGQPHEPQVYVLPPAQEELSRNKVSVTCLIKSFHPPDIAVEWEITGQPEPENNYRTTPPQLDSDGTYFVYSKLSVDRSHWQRGNTYTCSVSHEALHWHHTQKSLTQSPGK
For the molecule B2, the Kd is 10.2 nM in assay [1] and 8380 nM in assay [2].

B3: feline IgG1a S252Y/S428Y/L314K (antibody, part only; not given: Variable domains, not shown: another chain or arm of the molecule)
constant: ASTTAPSVFPLAPSCGTTSGATVALACLVLGYFPEPVTVSWNSGALTSGVHTFPAVLQASGLYSLSSMVTVPSSRWLSDTFTCNVAHPPSNTKVDKTVRKTDHPPGPKPCDCPKCPPPEMLGGPSIFIFPPKPKDTLYISRTPEVTCLVVDLGPDDSDVQITWFVDNTQVYTAKTSPREEQFNSTYRVVSVLPILHQDWKKGKEFKCKVNSKSLPSPIERTISKAKGQPHEPQVYVLPPAQEELSRNKVSVTCLIKSFHPPDIAVEWEITGQPEPENNYRTTPPQLDSDGTYFVYSKLSVDRSHWQRGNTYTCSVYHEALHSHHTQKSLTQSPGK
For B3, the Kd in assay [1] turned out to be 7.93 nM; in assay [2] it was 23300 nM.

B4: feline IgG1a S428Y/L314K/S434Y (antibody, part only; not given: Variable domains, not shown: another chain or arm of the molecule)
constant: ASTTAPSVFPLAPSCGTTSGATVALACLVLGYFPEPVTVSWNSGALTSGVHTFPAVLQASGLYSLSSMVTVPSSRWLSDTFTCNVAHPPSNTKVDKTVRKTDHPPGPKPCDCPKCPPPEMLGGPSIFIFPPKPKDTLSISRTPEVTCLVVDLGPDDSDVQITWFVDNTQVYTAKTSPREEQFNSTYRVVSVLPILHQDWKKGKEFKCKVNSKSLPSPIERTISKAKGQPHEPQVYVLPPAQEELSRNKVSVTCLIKSFHPPDIAVEWEITGQPEPENNYRTTPPQLDSDGTYFVYSKLSVDRSHWQRGNTYTCSVYHEALHYHHTQKSLTQSPGK
For B4, the Kd in assay [1] was 0.793 nM; in assay [2], 17.2 nM.

B5: feline IgG1a S252Y/S428Y/D312P (antibody, part only; not given: variable domains, not shown: another chain or arm of the molecule)
constant: ASTTAPSVFPLAPSCGTTSGATVALACLVLGYFPEPVTVSWNSGALTSGVHTFPAVLQASGLYSLSSMVTVPSSRWLSDTFTCNVAHPPSNTKVDKTVRKTDHPPGPKPCDCPKCPPPEMLGGPSIFIFPPKPKDTLYISRTPEVTCLVVDLGPDDSDVQITWFVDNTQVYTAKTSPREEQFNSTYRVVSVLPILHQPWLKGKEFKCKVNSKSLPSPIERTISKAKGQPHEPQVYVLPPAQEELSRNKVSVTCLIKSFHPPDIAVEWEITGQPEPENNYRTTPPQLDSDGTYFVYSKLSVDRSHWQRGNTYTCSVYHEALHSHHTQKSLTQSPGK
Turning to B5, the Kd came out at 15.1 nM in assay [1] and 4080 nM in assay [2].

B6: feline IgG1a S428Y/D312P/L314K (antibody, part only; not given: Variable domains, not shown: another chain or arm of the molecule)
constant: ASTTAPSVFPLAPSCGTTSGATVALACLVLGYFPEPVTVSWNSGALTSGVHTFPAVLQASGLYSLSSMVTVPSSRWLSDTFTCNVAHPPSNTKVDKTVRKTDHPPGPKPCDCPKCPPPEMLGGPSIFIFPPKPKDTLSISRTPEVTCLVVDLGPDDSDVQITWFVDNTQVYTAKTSPREEQFNSTYRVVSVLPILHQPWKKGKEFKCKVNSKSLPSPIERTISKAKGQPHEPQVYVLPPAQEELSRNKVSVTCLIKSFHPPDIAVEWEITGQPEPENNYRTTPPQLDSDGTYFVYSKLSVDRSHWQRGNTYTCSVYHEALHSHHTQKSLTQSPGK
On to B6, for which the Kd was found to be 15.2 nM in assay [1] and 6860 nM in assay [2].

B7: feline IgG1a S252Y/S434H/Q311W (antibody, part only; not given: variable domains, not shown: another chain or arm of the molecule)
constant: ASTTAPSVFPLAPSCGTTSGATVALACLVLGYFPEPVTVSWNSGALTSGVHTFPAVLQASGLYSLSSMVTVPSSRWLSDTFTCNVAHPPSNTKVDKTVRKTDHPPGPKPCDCPKCPPPEMLGGPSIFIFPPKPKDTLYISRTPEVTCLVVDLGPDDSDVQITWFVDNTQVYTAKTSPREEQFNSTYRVVSVLPILHWDWLKGKEFKCKVNSKSLPSPIERTISKAKGQPHEPQVYVLPPAQEELSRNKVSVTCLIKSFHPPDIAVEWEITGQPEPENNYRTTPPQLDSDGTYFVYSKLSVDRSHWQRGNTYTCSVSHEALHHHHTQKSLTQSPGK
As to B7, the Kd came to 8.39 nM in assay [1] and 989 nM in assay [2].

B8: feline IgG1a S428Y/Q311W/L314K (antibody, part only; not given: Variable domains, not shown: another chain or arm of the molecule)
constant: ASTTAPSVFPLAPSCGTTSGATVALACLVLGYFPEPVTVSWNSGALTSGVHTFPAVLQASGLYSLSSMVTVPSSRWLSDTFTCNVAHPPSNTKVDKTVRKTDHPPGPKPCDCPKCPPPEMLGGPSIFIFPPKPKDTLSISRTPEVTCLVVDLGPDDSDVQITWFVDNTQVYTAKTSPREEQFNSTYRVVSVLPILHWDWKKGKEFKCKVNSKSLPSPIERTISKAKGQPHEPQVYVLPPAQEELSRNKVSVTCLIKSFHPPDIAVEWEITGQPEPENNYRTTPPQLDSDGTYFVYSKLSVDRSHWQRGNTYTCSVYHEALHSHHTQKSLTQSPGK
Take B8: the values for the Kd in assay [1] and in assay [2] were 10.1 nM and 348 nM, respectively.

B9: feline IgG1a S428Y/L314K (antibody, part only; not given: Variable domains, not shown: another chain or arm of the molecule)
constant: ASTTAPSVFPLAPSCGTTSGATVALACLVLGYFPEPVTVSWNSGALTSGVHTFPAVLQASGLYSLSSMVTVPSSRWLSDTFTCNVAHPPSNTKVDKTVRKTDHPPGPKPCDCPKCPPPEMLGGPSIFIFPPKPKDTLSISRTPEVTCLVVDLGPDDSDVQITWFVDNTQVYTAKTSPREEQFNSTYRVVSVLPILHQDWKKGKEFKCKVNSKSLPSPIERTISKAKGQPHEPQVYVLPPAQEELSRNKVSVTCLIKSFHPPDIAVEWEITGQPEPENNYRTTPPQLDSDGTYFVYSKLSVDRSHWQRGNTYTCSVYHEALHSHHTQKSLTQSPGK
B9: the Kd in assay [1] is 7.63 nM; in assay [2], 1850 nM.

B10: feline IgG1a S252Y/S434R/Q311W (antibody, part only; not given: Variable domains, not shown: another chain or arm of the molecule)
constant: ASTTAPSVFPLAPSCGTTSGATVALACLVLGYFPEPVTVSWNSGALTSGVHTFPAVLQASGLYSLSSMVTVPSSRWLSDTFTCNVAHPPSNTKVDKTVRKTDHPPGPKPCDCPKCPPPEMLGGPSIFIFPPKPKDTLYISRTPEVTCLVVDLGPDDSDVQITWFVDNTQVYTAKTSPREEQFNSTYRVVSVLPILHWDWLKGKEFKCKVNSKSLPSPIERTISKAKGQPHEPQVYVLPPAQEELSRNKVSVTCLIKSFHPPDIAVEWEITGQPEPENNYRTTPPQLDSDGTYFVYSKLSVDRSHWQRGNTYTCSVSHEALHRHHTQKSLTQSPGK
For the molecule B10, the equilibrium dissociation constant (Kd) in assay [1] was determined as 0.143 nM; in assay [2], 4.44 nM.

B11: feline IgG1a S428Y/Q311W/D312P (antibody, part only; not given: Variable domains, not shown: another chain or arm of the molecule)
constant: ASTTAPSVFPLAPSCGTTSGATVALACLVLGYFPEPVTVSWNSGALTSGVHTFPAVLQASGLYSLSSMVTVPSSRWLSDTFTCNVAHPPSNTKVDKTVRKTDHPPGPKPCDCPKCPPPEMLGGPSIFIFPPKPKDTLSISRTPEVTCLVVDLGPDDSDVQITWFVDNTQVYTAKTSPREEQFNSTYRVVSVLPILHWPWLKGKEFKCKVNSKSLPSPIERTISKAKGQPHEPQVYVLPPAQEELSRNKVSVTCLIKSFHPPDIAVEWEITGQPEPENNYRTTPPQLDSDGTYFVYSKLSVDRSHWQRGNTYTCSVYHEALHSHHTQKSLTQSPGK
Take B11: the figures for the Kd in assay [1] and in assay [2] were 26 nM and 4190 nM, respectively.

B12: feline IgG1a S434W (antibody, part only; not given: Variable domains, not shown: another chain or arm of the molecule)
constant: ASTTAPSVFPLAPSCGTTSGATVALACLVLGYFPEPVTVSWNSGALTSGVHTFPAVLQASGLYSLSSMVTVPSSRWLSDTFTCNVAHPPSNTKVDKTVRKTDHPPGPKPCDCPKCPPPEMLGGPSIFIFPPKPKDTLSISRTPEVTCLVVDLGPDDSDVQITWFVDNTQVYTAKTSPREEQFNSTYRVVSVLPILHQDWLKGKEFKCKVNSKSLPSPIERTISKAKGQPHEPQVYVLPPAQEELSRNKVSVTCLIKSFHPPDIAVEWEITGQPEPENNYRTTPPQLDSDGTYFVYSKLSVDRSHWQRGNTYTCSVSHEALHWHHTQKSLTQSPGK
As to B12, the Kd in assay [1] stood at 0.771 nM; in assay [2], 21.6 nM.

B13: feline IgG1a S428Y/Q311W (antibody, part only; not given: Variable domains, not shown: another chain or arm of the molecule)
constant: ASTTAPSVFPLAPSCGTTSGATVALACLVLGYFPEPVTVSWNSGALTSGVHTFPAVLQASGLYSLSSMVTVPSSRWLSDTFTCNVAHPPSNTKVDKTVRKTDHPPGPKPCDCPKCPPPEMLGGPSIFIFPPKPKDTLSISRTPEVTCLVVDLGPDDSDVQITWFVDNTQVYTAKTSPREEQFNSTYRVVSVLPILHWDWLKGKEFKCKVNSKSLPSPIERTISKAKGQPHEPQVYVLPPAQEELSRNKVSVTCLIKSFHPPDIAVEWEITGQPEPENNYRTTPPQLDSDGTYFVYSKLSVDRSHWQRGNTYTCSVYHEALHSHHTQKSLTQSPGK
On to B13, for which the results for the Kd in assay [1] and in assay [2] were 12.7 nM and 7630 nM, respectively.

B14: feline IgG1a S252Y/S434W/Q311W (antibody, part only; not given: Variable domains, not shown: another chain or arm of the molecule)
constant: ASTTAPSVFPLAPSCGTTSGATVALACLVLGYFPEPVTVSWNSGALTSGVHTFPAVLQASGLYSLSSMVTVPSSRWLSDTFTCNVAHPPSNTKVDKTVRKTDHPPGPKPCDCPKCPPPEMLGGPSIFIFPPKPKDTLYISRTPEVTCLVVDLGPDDSDVQITWFVDNTQVYTAKTSPREEQFNSTYRVVSVLPILHWDWLKGKEFKCKVNSKSLPSPIERTISKAKGQPHEPQVYVLPPAQEELSRNKVSVTCLIKSFHPPDIAVEWEITGQPEPENNYRTTPPQLDSDGTYFVYSKLSVDRSHWQRGNTYTCSVSHEALHWHHTQKSLTQSPGK
For B14, the figures for the Kd in assay [1] and in assay [2] were 6.59 nM and 2190 nM, respectively.

B15: feline IgG1a S434Y (antibody, part only; not given: Variable domains, not shown: another chain or arm of the molecule)
constant: ASTTAPSVFPLAPSCGTTSGATVALACLVLGYFPEPVTVSWNSGALTSGVHTFPAVLQASGLYSLSSMVTVPSSRWLSDTFTCNVAHPPSNTKVDKTVRKTDHPPGPKPCDCPKCPPPEMLGGPSIFIFPPKPKDTLSISRTPEVTCLVVDLGPDDSDVQITWFVDNTQVYTAKTSPREEQFNSTYRVVSVLPILHQDWLKGKEFKCKVNSKSLPSPIERTISKAKGQPHEPQVYVLPPAQEELSRNKVSVTCLIKSFHPPDIAVEWEITGQPEPENNYRTTPPQLDSDGTYFVYSKLSVDRSHWQRGNTYTCSVSHEALHYHHTQKSLTQSPGK
As to B15, the Kd in assay [1] worked out at 0.433 nM; in assay [2], 14.4 nM.
